{
  "source": "paper PMC11984713",
  "target": "FLAG-SpbK (Bacillus subtilis (ICEBs1))",
  "data": [
    {"substance": "YonE-Myc (natural protein)", "values": [
      {"measurement": "fold decrease in cellular levels of NAD^+ 15 to 30 minutes after induction of yonE in cells expressing spbK (untagged proteins)", "result": 100, "unit": "fold"}
    ]}
  ]
}
